Source: patent publication US20180021429A1, “ANTICANCER AGENTS OR ANTIMETASTATIC AGENTS USING FSTL1 AND COMBINATION DRUG THEREOF” (PHARMA FOODS INTERNATIONAL CO., LTD., priority 2015, published 2018)

How the values were obtained:
[1] = system: Panc1, Panc1-snail+, MIAPaCa, MDA231, Hs294T; assay: Proliferative capacity and invasive capacity of various human tumor cells (Example 26); type: cell-based; settings: antibody 5 μg/ml; 3 days culture; Matrigel transwell 4 hours
Method: Specifically, the influence of the anti-FSTL1 antibody on proliferative capacity and invasive capacity was studied using various human tumor cells, regardless of the presence or absence of the expression of Snail or FSTL1. Specifically, the anti-FSTL1 antibody (#6-55, 5 μg/ml) or a control antibody (aHema: mouse chimeric anti-hemagglutinin antibody, 5 μg/ml) was added to systems in which a pancreatic cancer cell line Panc1 (ATCC #CRL-1469), Panc1-snail+ which is a Panc1 cell line forced to express Snail, a pancreatic cancer cell line MIAPaCa (ATCC #CRL-1420), a bone metastatic breast cancer cell line MDA231 (ATCC #HTB-26), and a melanoma cell line Hs294T (ATCC #HTB-140) were each cultured at 1×10^5 cells. After culture for 3 days, the number of cells per culture system was counted to evaluate the proliferative capacity of the cells. The cells (5×10^4 cells) after the counting were further inoculated to Matrigel-coated transwell chamber (Corning Inc. #354480) and cultured for 4 hours. Then, the membranes were removed, and stained and fixed with Crystal Violet fixative. Then, the number of cells that permeated the membranes was counted under a microscope to evaluate the invasive capacity of the cells.

mouse melanoma B16-F10 [2] = assay: In vivo melanoma B16-F10 model (Example 22); design: species or system C57BL/6 mice; settings: intraperitoneal 10 mg/kg on days 3 and 6
Method: (§1) The drug efficacy of the anti-FSTL1 antibody was evaluated according to Examples 17 to 20 using other cancer-bearing models of C57BL/6 mice of the same strain as in Snail-positive tumor bone metastasis models. The “mouse melanoma B16-F10” is a parent line of the cell line forced to express Snail, which was transplanted in the bone metastasis models used in the preceding tests.
1. Experiment Group (n=5) 1. Mouse melanoma B16-F10+control IgG (anti-DNP mAb) 2. Mouse melanoma B16-F10+anti-FSTL mAb (#6-55)
(§2) • Day 0: transplantation of tumor cells (1×10^6 cells subcutaneously & 1×10^6 cells intravenously) • Day 3: intraperitoneal administration of the antibody (first dose, corresponding to 200 μg/mouse=10 mg/kg) • Day 6: intraperitoneal administration of the antibody (second dose, corresponding to 200 μg/mouse=10 mg/kg) • Day 15 various immunological assays
• Effects on the growth of subcutaneous tumor (calculation of tumor volume by tumor size measurement): measured 6, 10, and 14 days after tumor implantation (FIG. 16A) • Effects on weight loss (FIG. 16B)

mouse melanoma B16-F10 [3] = assay: In vivo, mouse melanoma B16-F10 (Example 22)
Method: as §1
1. Experiment Group (n=5) • 1. Mouse melanoma B16-F10+control IgG (anti-DNP mAb) • 2. Mouse melanoma B16-F10+anti-FSTL1 mAb (#6-55)
as §2
• Effects on the growth of subcutaneous tumor (calculation of tumor volume by tumor size measurement): measured 6, 10, and 14 days after tumor implantation (FIG. 46A) • Effects on weight loss (FIG. 46B)
• Effects on the growth of subcutaneous tumor (calculation of tumor volume by tumor size measurement): measured 6, 10, and 14 days after tumor implantation (FIG. 78A) • Effects on weight loss (FIG. 78B)

mouse lymphoma EL4 = assay: In vivo, mouse lymphoma EL4 (Example 23); settings: intraperitoneal 10 mg/kg on days 3 and 6, vs control antibody
Method: The drug efficacy of the anti-FSTL1 antibody was evaluated according to Examples 17 to 20 using mouse lymphoma EL4, which is a cancer type having enhanced FSTL1 expression.
1. Experiment Group (n=5) • 1. Mouse lymphoma EL4+control IgG (anti-DNP mAb) • 2. Mouse lymphoma EL4+anti-FSTL1 mAb (#6-55)
as §2, with “15:” for “15”
• Effects on the growth of subcutaneous tumor (calculation of tumor volume by tumor size measurement): measured 3, 6, and 10 days after tumor implantation

B1: #6-55: chicken-mouse chimeric anti-FSTL1 antibody clone; variable regions SEQ ID NO: 783 (light), 785 (heavy) (antibody, V domains shown)
VH: AVTLDESGGGLQTPGGALSLVCKGSGFTFTSVTMQWVRQAPGKGLEWVASVCSGSSTYYAPAVKGRATISRDNGQSTVRLQLSNLRPEDTGTYYCAKIAGRARWSCTSAAYNIDAWGHGTEVIVSS
VL: ASTQPSSVSAIPGETVKITCSGGGNNYGWYQQRSPGSAPVTVIYYNDNRPSNIPSRFSGSTSGSTSTLTITGVQADDEAIYYCGSWDSNTDSGIFGAGTTLTVL
modifications: mouse constant regions
Q: How did the “proliferative capacity and invasive capacity of tumor cells” value [1] turn out when B1 was run?
A: both proliferative capacity and invasive capacity were strongly suppressed, particularly, in a highly metastatic tumor cell line highly expressing Snail

Q: And the weight loss (mouse melanoma B16-F10 [2])?
A: suppressive activity against weight loss was also exhibited

Q: What about the subcutaneous tumor growth (mouse melanoma B16-F10 [2]; vs control antibody) of the same molecule?
A: strongly suppressed

Q: And the weight loss (mouse melanoma B16-F10 [3]; intraperitoneal 10 mg/kg on days 3 and 6)?
A: suppressive activity against weight loss was also exhibited

Q: And the subcutaneous tumor growth (mouse melanoma B16-F10 [3]; intraperitoneal 10 mg/kg on days 3 and 6, vs control antibody)?
A: strongly suppressed

Q: What about the subcutaneous tumor growth (mouse lymphoma EL4) of the same molecule?
A: strongly suppressed
